± gives the standard deviation of the averaged measurements.
Tests used:
Saccharomyces cerevisiae [1] = assay: protein stability index of tFT-peptide fusion in deletion strain of DOA10 (PSI (0-1 scale)); higher = more stable (slower turnover)
Method: (§1)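 MPS profiling in S. cerevisiae of two library types built from selected 12-aa C-degron peptides (IN1, IN2, LN1, LN3, VN2, R1-R5, W1-W3, Atg1 and Rpa12 C-termini): saturation mutagenesis libraries and C-terminal +1 capping libraries (13 aa). Each peptide is fused to the C-terminus of a sfGFP-mCherry timer, after a GGGS linker. Cells are FACS-sorted into 8 mCherry/sfGFP bins and sequenced. PSI runs from 0 (unstable) to 1 (stable), measured once in wild type and in the das1Δ or doa10Δ background.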

Saccharomyces cerevisiae [2] = assay: protein stability index of tFT-peptide fusion in wild type (PSI (0-1 scale)); higher = more stable (slower turnover); conditions: genetic background: wild type
Method: as §1

Saccharomyces cerevisiae [3] = assay: protein stability index of tFT-peptide fusion in deletion strain of DAS1 (PSI (0-1 scale)); higher = more stable (slower turnover)
Method: as §1

Saccharomyces cerevisiae [4] = assay: protein stability index of tFT-peptide fusion (C-terminal peptide) (PSI (0-1 scale)); higher = more stable (slower turnover)
Method: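 MPS profiling in S. cerevisiae of the tFT-X12 degron library: putative degron peptides plus stable controls, 12 aa, fused to the C-terminus of a sfGFP-mCherry timer. Cells are FACS-sorted into 8 mCherry/sfGFP bins and deep-sequenced. PSI runs from 0 (unstable) to 1 (stable). Backgrounds are wild type, das1Δ and doa10Δ at 30 °C, and wild type, das1Δ, cdc34-1 and cdc53-1 at 37 °C; 2-3 technical replicates each.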

Saccharomyces cerevisiae [5] = assay: as above; conditions: genetic background: wild type; temperature: 30 C
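Throughout, for protein stability index of tFT-peptide fusion (C-terminal peptide): PSI is a weighted mean of sequencing reads over stability bins, variants kept only with over 10 reads, mCherry proximal and sfGFP distal, peptide attached via GGGS linker.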
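Throughout, for protein stability index of tFT-peptide fusion in deletion strain of DAS1: PSI is a weighted mean of each variant's read distribution over the sorted stability bins, computed only for variants having over 10 reads in total.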
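Throughout, for protein stability index of tFT-peptide fusion in deletion strain of DOA10: PSI per variant is the weighted mean of its sequencing read distribution over the sorted stability bins, counting only variants with over 10 reads summed across bins.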
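Throughout, for protein stability index of tFT-peptide fusion in wild type: PSI derived as read-weighted mean over the 8 sorting bins, only variants exceeding 10 total reads kept, mCherry placed adjacent to the peptide and sfGFP distal.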

Sequence | protein stability index (Saccharomyces cerevisiae [1]) | protein stability index (Saccharomyces cerevisiae [2]) | protein stability index (Saccharomyces cerevisiae [3]) | further results
GLYMCSVGCWFRP | 0.62 | 0.287 | – | –
GLYMCSVGCRFR | 0.654 | 0.625 | – | –
GLYMCSVKCWFR | 0.462 | 0.415 | – | –
AITAPMCPLLLR | 0.66 | 0.472 | – | –
RSLRVWLPLYFR | 0.693 | 0.166 | – | –
CLFSLPILLFFR | 0.581 | 0.0583 | – | –
GLYMCSVGCWFG | 0.478 | 0.456 | – | –
RWTRLDAIYFRI | 0.528 | 0.337 | – | –
CLCSLPILLFFR | 0.615 | 0.106 | – | –
CMVSLPILLFFR | 0.584 | 0.0703 | – | –
AITLPMCPLLLK | 0.653 | 0.269 | – | –
RSLRVLLPLYFRW | 0.677 | 0.215 | – | –
GLYMCSVGCWFRQ | 0.182 | 0.113 | – | –
RSLRVLLFLYFR | 0.45 | 0.21 | – | –
SLVSLPILLFFR | 0.619 | 0.0746 | – | –
CLVSLPILIFFR | 0.53 | 0.0649 | – | –
RVTRRDAIYFRI | 0.673 | 0.485 | – | –
RVTRLDAIYFYI | 0.449 | 0.425 | – | –
CLQSLPILLFFR | 0.631 | 0.0983 | – | –
CLVCLPILLFFR | 0.494 | 0.104 | – | –
RVTRLDAIYFRT | 0.703 | 0.546 | – | –
RSLRVLLPLYFC | 0.175 | 0.0775 | – | –

Sequence | protein stability index (Saccharomyces cerevisiae [1]) | protein stability index (Saccharomyces cerevisiae [2]) | protein stability index (Saccharomyces cerevisiae [3]) | further results
CLVSLPCLLFFR | 0.639 | 0.064 | – | –
RSTRVLLPLYFR | 0.684 | 0.292 | – | –
RSLRVLKPLYFR | 0.675 | 0.304 | – | –
AITLPMCFLLLR | 0.62 | 0.0902 | – | –
RVTRLDAIYFRK | 0.711 | 0.673 | – | –
AITLPMCPLLYR | 0.652 | 0.529 | – | –
GLYMCSVGCYFR | 0.638 | 0.425 | – | –
AITLPMCKLLLR | 0.663 | 0.392 | – | –
CLVSLPISLFFR | 0.656 | 0.101 | – | –
CITLPMCPLLLR | 0.635 | 0.118 | – | –
RVTRLDAIDFRI | 0.746 | 0.668 | – | –
CIVSLPILLFFR | 0.566 | 0.0595 | – | –
AITLPMCPLKLR | 0.668 | 0.549 | – | –
AINLPMCPLLLR | 0.656 | 0.243 | – | –
AITLPMCPMLLR | 0.661 | 0.392 | – | –
RVTRLDAITFRI | 0.72 | 0.678 | – | –
CLVSLPILLFFD | 0.583 | 0.433 | – | –
GLYCCSVGCWFR | 0.658 | 0.342 | – | –
AITLPMLPLLLR | 0.633 | 0.125 | – | –
IRWRVGLWRGAS | – | 0.163 | 0.707 | –
KKHKKMQKQKIN | – | 0.027 | 0.571 | –
PDKRNHLIKLHN | – | 0.359 | 0.593 | –

Sequence | protein stability index (Saccharomyces cerevisiae [1]) | protein stability index (Saccharomyces cerevisiae [2]) | protein stability index (Saccharomyces cerevisiae [3]) | further results
LVHYLSCVACIN | – | 0.0263 | 0.188 | –
KKHNKGQKQKIN | – | 0.0428 | 0.645 | –
FSMVWTFRYWVN | – | 0.0843 | 0.314 | –
ARWRVGLWMGAS | – | 0.622 | 0.667 | –
VRGAVGGWRLVC | – | 0.143 | 0.634 | –
CDSCGYKFRTNN | – | 0.251 | 0.691 | –
LVVTLSCVACIN | – | 0.0146 | 0.0408 | –
TDKRNHLIKLLN | – | 0.12 | 0.577 | –
VRGAVGGWVLVG | – | 0.202 | 0.659 | –
LKIARQKMNHQN | – | 0.277 | 0.694 | –
HRWRVGLWRGAS | – | 0.457 | 0.676 | –
PDKHNHLIKLLN | – | 0.0998 | 0.622 | –
LKILRQKMNHQY | – | 0.274 | 0.684 | –
PSLAASFYRVVG | – | 0.625 | 0.689 | –
PILAASFWRVVG | – | 0.145 | 0.678 | –
RLIQPLPVFFLN | – | 0.0542 | 0.586 | –
FSMRWVFRYWVN | – | 0.077 | 0.495 | –
PDKRNMLIKLLN | – | 0.0899 | 0.722 | –
FPMRWTFRYWVN | – | 0.062 | 0.574 | –
PDKRNHLIKNLN | – | 0.473 | 0.54 | –
PSLAASFWRVVA | – | 0.131 | 0.68 | –
KKAKKGQKQKIN | – | 0.106 | 0.624 | –

Sequence | protein stability index (Saccharomyces cerevisiae [1]) | protein stability index (Saccharomyces cerevisiae [2]) | protein stability index (Saccharomyces cerevisiae [3]) | further results
ARWRVGLWRGAH | – | 0.536 | 0.688 | –
KKHKKWQKQKIN | – | 0.0352 | 0.585 | –
PSLAASKWRVVG | – | 0.138 | 0.666 | –
CTSCGYKFRTGN | – | 0.581 | 0.701 | –
FSMRWTFQYWVN | – | 0.0522 | 0.502 | –
PSLAASEWRVVG | – | 0.535 | 0.703 | –
RLIQPLPVQFLV | – | 0.0819 | 0.643 | –
LKILRTKMNHQN | – | 0.178 | 0.678 | –
PSLAASFWRVVG | – | 0.146 | 0.686 | protein stability index (Saccharomyces cerevisiae [4]; genetic background: cdc34-1, temperature: 37 C): 0.595 ± 0.1; protein stability index (Saccharomyces cerevisiae [4]; genetic background: cdc53-1, temperature: 37 C): 0.749 ± 0.016; protein stability index (Saccharomyces cerevisiae [4]; genetic background: das1 deletion, temperature: 30 C): 0.694 ± 0.051; protein stability index (Saccharomyces cerevisiae [4]; genetic background: das1 deletion, temperature: 37 C): 0.7397 ± 0.0053; protein stability index (Saccharomyces cerevisiae [4]; genetic background: doa10 deletion, temperature: 30 C): 0.102 ± 0.031; protein stability index (Saccharomyces cerevisiae [4]; genetic background: wild type, temperature: 30 C): 0.109 ± 0.037; protein stability index (Saccharomyces cerevisiae [4]; genetic background: wild type, temperature: 37 C): 0.243 ± 0.0024; protein stability index (Saccharomyces cerevisiae [5]): 0.197 ± 0.013
KKHKQGQKQKIN | – | 0.0536 | 0.73 | –
FSQRWTFRYWVN | – | 0.0417 | 0.563 | –
KKHKKGSKQKIN | – | 0.0787 | 0.673 | –
PDKRNHLIKLLNC | – | 0.124 | 0.663 | –
RLIHPLPVQFLN | – | 0.0474 | 0.616 | –
CTSCGRKFRTNN | – | 0.456 | 0.717 | –
LTSCGYKFRTNN | – | 0.197 | 0.666 | –
PSLAASFWRLVG | – | 0.135 | 0.688 | –
PDKRTHLIKLLN | – | 0.0881 | 0.655 | –
ARWRVGLWRGASL | – | 0.719 | 0.715 | –
LKILRQKMNHCN | – | 0.191 | 0.669 | –
ARWRVGLIRGAS | – | 0.561 | 0.665 | –
ARWWVGLWRGAS | – | 0.508 | 0.742 | –

Sequence | protein stability index (Saccharomyces cerevisiae [1]) | protein stability index (Saccharomyces cerevisiae [2]) | protein stability index (Saccharomyces cerevisiae [3]) | further results
CTSAGYKFRTNN | – | 0.303 | 0.678 | –
LHVYLSCVACIN | – | 0.0172 | 0.109 | –
VRGAVGGWRWVG | – | 0.144 | 0.682 | –
PDKTNHLIKLLN | – | 0.144 | 0.658 | –
RLIQPLPVQFLY | – | 0.28 | 0.682 | –
ARWRVGCWRGAS | – | 0.524 | 0.637 | –
CTSCIYKFRTNN | – | 0.163 | 0.666 | –
RLINPLPVQFLN | – | 0.0773 | 0.668 | –
ARWRVGKWRGAS | – | 0.327 | 0.687 | –
LMILRQKMNHQN | – | 0.166 | 0.676 | –
KKHKKIQKQKIN | – | 0.0571 | 0.631 | –
PSLAAEFWRVVG | – | 0.168 | 0.697 | –
LVVYLVCVACIN | – | 0.0125 | 0.0307 | –
LVVYLMCVACIN | – | 0.0154 | 0.0335 | –
CTSCGYKFRTNV | – | 0.53 | 0.681 | –
PDKDNHLIKLLN | – | 0.281 | 0.568 | –
ARWRVGIWRGAS | – | 0.344 | 0.691 | –
LVVYLSCYACIN | – | 0.0136 | 0.0478 | –
